Data as given in the supplement of paper PMC11908140.

B1: library; numbered along this chain (parent)
chain: MRKPRAAVGSGHRKQAASQEGRQKHAKNNSQAKPSACDGLARQPEEVVLQASVSSYHLFRDVAEVTAFRGSLLSWYDQEKRDLPWRRRAEDEMDLDRRAYAVWVSEVMLQQTQVATVINYYTGWMQKWPTLQDLASASLEEVNQLWAGLGYYSRGRRLQEGARKVVEELGGHMPRTAETLQQLLPGVGRYTAGAIASIAFGQATGVVDGNVARVLCRVRAIGADPSSTLVSQQLWGLAQQLVDPARPGDFNQAAMELGATVCTPQRPLCSQCPVESLCRARQRVEQEQLLASGSLSGSPDVEECAPNTGQCHLCLPPSEPWDQTLGVVNFPRKASRKPPREESSATCVLEQPGALGAQILLVQRPNSGLLAGLWEFPSVTWEPSEQLQRKALLQELQRWAGPLPATHLRHLGEVVHTFSHIKLTYQVYGLALEGQTPVTTVPPGARWLTQEEFHTAAVSTAMKKVFRVYQGQQPGTCMGSKRSQVSSPCSRKKPRMGQQVLDNFFRSHISTDAHSLNSAAQ
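Note: cells sorted at 72 h after reporter transfection.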

Variants of: B1
Test: 8OG:A repair function score (normalized; synonymous = 0, nonsense = -1) (normalized log-likelihood score); higher = more repair activity (WT-like)
Details: with 8OG:A DNA repair reporter (GFP) in HEK-293 MUTYH KO cells
Method in brief: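 After 72 h, viable mCherry+ cells were split into GFP+ (repair) and GFP− bins in three replicates per tile. These cells were MUTYH knockout HEK-293 cells holding lentiviral MUTYH cDNA NNN codon-scan libraries, kept in 10 pg/ml doxycycline and co-transfected with mCherry plus an 8OG:A GFP repair reporter. Sequencing of tile amplicons gave per-tile Rosace fitness scores, normalized into a repair function score anchored on synonymous and nonsense distributions. Synonymous medians were fixed at 0, nonsense at -1, and variants under 300 counts per million at the start were removed.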
For MRKPRAAVGSGHRKQAASQEGRQKHAKNNSQAKPSACDGLARQPEEVVLQASVSSYHLFRDVAEVTAFRGSLLSWYDQEKRDLPWRRRAEDEMDLDRRAYAVWVSEVMLQQTQVATVINYYTGWMQKWPTLQDLASASLEEVNQLWAGLGYYSRGRRLQEGARKVVEELGGHMPRTAETLQQLLPGVGRYTAGAIASIAFGQATGVVDGNVARVLCRVRAIGADPSSTLVSQQLWGLAQQLVDPARPGDFNQAAMELGATVCTPQRPLCSQCPVESLCRARQRVEQEQLLASGSLSGSPDVEECAPNTGQCHLCLPPSEPWDQTLGVVNFPRKASRKPPREESSATCVLEQPGALGAQILLVQRPNSGLLAGLGEFPSVTWEPSEQLQRKALLQELQRWAGPLPATHLRHLGEVVHTFSHIKLTYQVYGLALEGQTPVTTVPPGARWLTQEEFHTAAVSTAMKKVFRVYQGQQPGTCMGSKRSQVSSPCSRKKPRMGQQVLDNFFRSHISTDAHSLNSAAQ [W374G], the “8OG:A repair function score” value was -0.847. MRKPRAAVGSGHRKQAASQEGRQKHAKNNSQAKPSACDGLARQPEEVVLQASVSSYHLFRDVAEVTAFRGSLLSWYDQEKRDLPWRRRAEDEMDLDRRAYAVWVSEVMLQQTQVATVINYYTGWMQKWPTLQDLASASLEEVNQLWAGLGYYSRGRRLQEGARKVVEELGGHMPRTAETLQQLLPGVGRYTAGAIASIAFGQATGVVDGNVARVLCRVRAIGADPSSTLVSQQLWGLAQQLVDPARPGDFNQAAMELGATVCTPQRPLCSQCPVESLCRARQRVEQEQLLASGSLSGSPDVEECAPNTGQCHLCLPPSEPWDQTLGVVNFPRKASRKPPREESSATCVLEQPGALGAQILLVQRPNSGLLAGLWEFPSVTWEPSEQLQRKALLQELQRWAGPLPATHLRHLGEVVHTFSHIKLTYQVYGLAHEGQTPVTTVPPGARWLTQEEFHTAAVSTAMKKVFRVYQGQQPGTCMGSKRSQVSSPCSRKKPRMGQQVLDNFFRSHISTDAHSLNSAAQ [L432H] was tested, and the “8OG:A repair function score” value was -0.223. With MRKPRAAVGSGHRKQAASQEGRQKHAKNNSQAKPSACDGLARQPEEVVLQASVSSYHLFRDVAEVTAFRGSLLSWYDQEKRDLPWRRRAEDEMDLDRRAYAVWVSEVMLQQTQVATVINYYTGWMQKWPTLQDLASASLEEVNQLWAGLGYYSRGRRLQEGARKVVEELGGHMPRTAETLQQLLPGVGRYTAGAIASIAFGQATGVVDGNVARVLCRVRAIGADPSSTLVSQQLWGLAQQLVDPARPGDFNQAAMELGATVCTPQRPLCSQCPVESLCRARQRVEQEQLLASGSLSGSPDVEECAPNTGQCHLCLPPSEPWDQTLGVVNFPRKASRKPPREESSATCVLEQPGALGAQILLVQRPNSGLLAGLWELPSVTWEPSEQLQRKALLQELQRWAGPLPATHLRHLGEVVHTFSHIKLTYQVYGLALEGQTPVTTVPPGARWLTQEEFHTAAVSTAMKKVFRVYQGQQPGTCMGSKRSQVSSPCSRKKPRMGQQVLDNFFRSHISTDAHSLNSAAQ [F376L] the “8OG:A repair function score” value was -0.608. MRKPRAAVGSGHRKQAASQEGRQKHAKNNSQAKPSACDGLARQPEEVVLQASVSSYHLFRDVAEVTAFRGSLLSWYDQEKRDLPWRRRAEDEMDLDRRAYAVWVSEVMLQQTQVATVINYYTGWMQKWPTLQDLASASLEEVNQLWAGLGYYSRGRRLQEGARKVVEELGGHMPRTAETLQQLLPGVGRYTAGAIASIAFGQATGVVDGNVARVLCRVRAIGADPSSTLVSQQLWGLAQQLVDPARPGDFNQAAMELGATVCTPQRPLCSQCPVESLCRARQRVEQEQLLASGSLSGSPDVEECAPNTGQCHLCLPLSEPWDQTLGVVNFPRKASRKPPREESSATCVLEQPGALGAQILLVQRPNSGLLAGLWEFPSVTWEPSEQLQRKALLQELQRWAGPLPATHLRHLGEVVHTFSHIKLTYQVYGLALEGQTPVTTVPPGARWLTQEEFHTAAVSTAMKKVFRVYQGQQPGTCMGSKRSQVSSPCSRKKPRMGQQVLDNFFRSHISTDAHSLNSAAQ [P317L] was tested, and the “8OG:A repair function score” value was -0.0676. In the case of MRKPRAAVGSGHRKQAASQEGRQKHAKNNSQAKPSACDGLARQPEEVVLQASVSSYHLFRDVAEVTAFRGSLLSWYDQEKRDLPWRRRAEDEMDLDRRAYAVWVSEVMLQQTQVATVINYYTGWMQKWPTLQDLASASLEEVNQLWAGLGYYSRGRRLQEGARKVVEELGGHMPRTAETLQQLLPGVGRYTAGAIASIAFGQATGVVDGNVARVLCRVRAIGADPSSTLVSQQLWGLAQQLVDPARPGDFNQAAMELGATVCTPQRPLCSQCPVESLCRARQRVEQEQLLASGSLSGSPDVEECAPNTGQCHLCLPPSEPWNQTLGVVNFPRKASRKPPREESSATCVLEQPGALGAQILLVQRPNSGLLAGLWEFPSVTWEPSEQLQRKALLQELQRWAGPLPATHLRHLGEVVHTFSHIKLTYQVYGLALEGQTPVTTVPPGARWLTQEEFHTAAVSTAMKKVFRVYQGQQPGTCMGSKRSQVSSPCSRKKPRMGQQVLDNFFRSHISTDAHSLNSAAQ [D322N], the “8OG:A repair function score” value is reported as -0.00231. In the case of MRKPRAAVGSGHRKQAASQEGRQKHAKNNSQAKPSACDGLARQPEEVVLQASVSSYHLFRDVAEVTAFRGSLLSWYDQEKRDLPWRRRAEDEMDLDRRAYAVWVSEVMLQQTQVATVINYYTGWMQKWPTLQDLASASLEEVNQLWAGLGYYSRGRRLQEGARKVVEELGGHMPRTAETLQQLLPGVGRYTAGAIASIAFGQATGVVDGNVARVLCRVRAIGADPSSTLVSQQLWGLAQQLVDPARPGDFNQAAMELGATVCTPQRPLCSQCPVESLCRARQRVEQEQLLASGSLSGSPDVEECAPNTGQCHLCLPPSEPWDQTLGVVNFPRKASRKPPREESSATCVLEQPGALGAQILLVQRPNSGLLAGLWEFPSVTWEPSEQLQRKALLQELQRWAGPLPATHLRHLGEVVNTFSHIKLTYQVYGLALEGQTPVTTVPPGARWLTQEEFHTAAVSTAMKKVFRVYQGQQPGTCMGSKRSQVSSPCSRKKPRMGQQVLDNFFRSHISTDAHSLNSAAQ [H416N], the “8OG:A repair function score” value is reported as -0.342.
